Measurements from patent US20240261333A1, “NOVEL TARGETS FOR ENHANCING ANTI-TUMOR IMMUNITY” (THE BROAD INSTITUTE, INC., priority 2021, published 2024).

T1: B3GNT2 (Homo sapiens, UniProt Q9NY97)
T1 construct: The respective ORFs of candidate genes [CD274 (NM_014143), MCL1 (NM_021960), JUNB (NM_002229), and B3GNT2 (NM_006577)] were synthesized; expressed in transfected cells; host or cells: A375 melanoma cells (lentiviral ORF overexpression)
T1 sequence (Q9NY97 1-397): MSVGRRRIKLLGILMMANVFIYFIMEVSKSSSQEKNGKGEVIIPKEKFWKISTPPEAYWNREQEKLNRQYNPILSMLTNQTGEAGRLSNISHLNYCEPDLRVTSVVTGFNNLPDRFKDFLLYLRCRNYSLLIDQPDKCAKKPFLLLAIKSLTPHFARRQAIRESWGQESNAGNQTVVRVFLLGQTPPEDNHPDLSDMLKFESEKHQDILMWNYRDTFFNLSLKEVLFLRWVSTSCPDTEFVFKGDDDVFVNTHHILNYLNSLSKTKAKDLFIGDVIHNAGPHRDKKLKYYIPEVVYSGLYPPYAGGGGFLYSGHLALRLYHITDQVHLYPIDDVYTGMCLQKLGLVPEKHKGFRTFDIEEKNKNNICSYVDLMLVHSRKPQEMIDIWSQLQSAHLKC


Target: T1, B3GNT2
Assay: Co-IP of FLAG-tagged B3GNT2 followed by mass spectrometry
Type: cell-based
Parameters: C-term IgG / C-term flag: unit not given here
Summary of the method: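 FLAG-tagged B3GNT2 immunoprecipitated from cell lysate (HEPES, 1% Triton X-100, 150 mM NaCl) with anti-FLAG versus […], overnight at 4° C, then captured on Protein A/G magnetic beads for 4 h. Two biological replicates per condition. Peptides fractionated and analyzed by nano-LC on an Orbitrap Elite in data-dependent mode.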

[1] = Co-IP followed by mass spectrometry of B3GNT2, C-term tag, FLAG pull-down
[2] = Co-IP followed by mass spectrometry of B3GNT2, C-term tag, IgG pull-down
[3] = Co-IP followed by mass spectrometry of B3GNT2, N-term tag, FLAG pull-down
[4] = Co-IP followed by mass spectrometry of B3GNT2, N-term tag, IgG pull-down

Row | C-term flag [1] | C-term IgG [2] | N-term FLAG [3] | N-term IgG [4] | C-term flag (Co-IP with FLAG antibody, C-terminally FLAG-tagged B3GNT2, mass spectrometry count, unit not given) | N-term FLAG (Co-IP with FLAG antibody, N-terminally FLAG-tagged B3GNT2, mass spectrometry count, unit not given) | C-term IgG (Co-IP with IgG control antibody, C-terminally FLAG-tagged B3GNT2, mass spectrometry count, unit not given) | N-term IgG (Co-IP with IgG control antibody, N-terminally FLAG-tagged B3GNT2, mass spectrometry count, unit not given) | Molecule
1 | 3 | 0 | 0 | 0 |  |  |  |  | HADHB (protein) AAPAVQTKTKKTLAKPNIRNVVVVDGVRTPFLLSGTSYKDLMPHDLARAALTGLLHRTSVPKEVVDYIIFGTVIQEVKTSNVAREAALGAGFSDKTPAHTVTMACISANQAMTTGVGLIASGQCDVIVAGGVELMSDVPIRHSRKMRKLMLDLNKAKSMGQRLSLISKFRFNFLAPELPAVSEFSTSETMGHSADRLAAAFAVSRLEQDEYALRSHSLAKKAQDEGLLSDVVPFKVPGKDTVTKDNGIRPSSLEQMAKLKPAFIKPYGTVTAANSSFLTDGASAMLIMAEEKALAMGYKPKAYLRDFMYVSQDPKDQLLLGPTYATPKVLEKAGLTMNDIDAFEFHEAFSGQILANFKAMDSDWFAENYMGRKTKVGLPPLEKFNNWGGSLSLGHPFGATGCRLVMAAANRLRKEGGQYGLVAACAAGGQGHAMIVEAYPK
2 | 35 | 33 | 30 | 28 |  |  |  |  | CPSF6 (protein) MADGVDHIDIYADVGEEFNQEAEYGGHDQIDLYDDVISPSANNGDAPEDRDYMDTLPPTVGDDVGKGAAPNVVYTYTGKRIALYIGNLTWWTTDEDLTEAVHSLGVNDILEIKFFENRANGQSKGFALVGVGSEASSKKLMDLLPKRELHGQNPVVTPCNKQFLSQFEMQSRKTTQSGQMSGEGKAGPPGGSSRAAFPQGGRGRGRFPGAVPGGDRFPGPAGPGGPPPPFPGNLIKHLVKGTRPLFLETRIPWHMGHSIEEIPIFGLKAGQTPPRPPLGPPGPPGPPGPPPPGQVLPPPLAGPPNRGDRPPPPVLFPGQPFGQPPLGPLPPGPPPPVPGYGPPPGPPPPQQGPPPPPGPFPPRPPGPLGPPLTLAPPPHLPGPPPGAPPPAPHVNPAFFPPPTNSGMPTSDSRGPPPTDPYGRPPPYDRGDYGPPGREMDTARTPLSEAEFEEIMNRNRAISSSAISRAVSDASAGDYGSAIETLVTAISLIKQSKVSADDRCKVLISSLQDCLHGIESKSYGSGSRRERSRERDHSRSREKSRRHKSRSRDRHDDYYRERSRERERHRDRDRDRDRERDREREYRHR
3 |  |  |  |  | 3 | 0 | 0 | 0 | DDOST (protein) SGPRTLVLLDNLNVRETHSLFFRSLKDRGFELTFKTADDPSLSLIKYGEFLYDNLIIFSPSVEDFGGNINVETISAFIDGGGSVLVAASSDIGDPLRELGSECGIEFDEEKTAVIDHHNYDISDLGQHTLIVADTENLLKAPTIVGKSSLNPILFRGVGMVADPDNPLVLDILTGSSTSYSFFPDKPITQYPHAVGKNTLLIAGLQARNNARVIFSGSLDFFSDSFFNSAVQKAAPGSQRYSQTGNYELAVALSRWVFKEEGVLRVGPVSHHRVGETAPPNAYTVTDLVEYSIVIQQLSNGKWVPFDGDDIQLEFVRIDPFVRTFLKKKGGKYSVQFKLPDVYGVFQFKVDYNRLGYTHLYSSTQVSVRPLQHTQYERFIPSAYPYYASAFSMMLGLFIFSIVFLHMKEKEKSD
4 | 3 | 0 | 0 | 0 |  |  |  |  | CSE1L (protein) MELSDANLQTLTEYLKKTLDPDPAIRRPAEKFLESVEGNQNYPLLLLTLLEKSQDNVIKVCASVTFKNYIKRNWRIVEDEPNKICEADRVAIKANIVHLMLSSPEQIQKQLSDAISIIGREDFPQKWPDLLTEMVNRFQSGDFHVINGVLRTAHSLFKRYRHEFKSNELWTEIKLVLDAFALPLTNLFKATIELCSTHANDASALRILFSSLILISKLFYSLNFQDLPEFFEDNMETWMNNFHTLLTLDNKLLQTDLVSNAIQFLASVCERPHYKNLFEDQNTLTSICEKVIVPNMEFRAADEEAFEDNSEEYIRRDLEGSDIDTRRRAACDLVRGLCKFFEGPVTGIFSGYVNSMLQEYAKNPSVNWKHKDAAIYLVTSLASKAQTQKHGITQANELVNLTEFFVNHILPDLKSANVNEFPVLKADGIKYIMIFRNQVPKEHLLVSIPLLINHLQAESIVVHTYAAHALERLFTMRGPNNATLFTAAEIAPFVEILLTNLFKALTLPGSSENEYIMKAIMRSFSLLQEAIIPYIPTLITQLTQKLLAVSKNPSKPHFNHYMFEAICLSIRITCKANPAAVVNFEEALFLVFTEILQNDVQEFIPYVFQVMSLLLETHKNDIPSSYMALFPHLLQPVLWERTGNIPALVRLLQAFLERGSNTIASAAADKIPGLLGVFQKLIASKANDHQGFYLLNSIIEHMPPESVDQYRKQIFILLFQRLQNSKTTKFIKSFLVFINLYCIKYGALALQEIFDGIQPKMFGMVLEKIIIPEIQKVSGNVEKKICAVGITKLLTECPPMMDTEYTKLWTPLLQSLIGLFELPEDDTIPDEEHFIDIEDTPGYQTAFSQLAFAGKKEHDPVGQMVNNPKIHLAQSLHKLSTACPGRVPSMVSTSLNAEALQYLQGYLQAASVTLL
5 | 5 | 3 | 4 | 5 |  |  |  |  | RBM39 (protein) ADDIDIEAMLEAPYKKDENKLSSANGHEERSKKRKKSKSRSRSHERKRSKSKERKRSRDRERKKSKSRERKRSRSKERRRSRSRSRDRRFRGRYRSPYRRRSRSKSPFRKDKSPVREPIDNLTPEERDARTVFCMQLAARIRPRDLEEFFSTVGKVRDVRMISDRNSRRSKGIAYVEFVDVSSVPLAIGLTGQRVLGVPIIVQASQAEKNRAAAMANNLQKGSAGPMRLYVGSLHFNITEDMLRGIFEPFGRIESIQLMMDSETGRSKGYGFITFSDSECAKKALEQLNGFELAGRPMKVGHVTERTDASSASSFLDSDELERTGIDLGTTGRLQLMARLAEGTGLQIPPAAQQALQMSGSLAFGAVAEFSFVIDLQTRLSQQTEASALAAAASVQPLATQCFQLSNMFNPQTEEEVGWDTEIKDDVIEECNKHGGVIHIYVDKNSAQGNVYVKCPSIAAAIAAVNALHGRWFAGKMITAAYVPLPTYHNLFPDSMTATQLLVPSRR
6 | 3 | 0 | 0 | 0 |  |  |  |  | PUM1 (protein) SVACVLKRKAVLWQDSFSPHLKHHPQEPANPNMPVVLTSGTGSQAQPQPAANQALAAGTHSSPVPGSIGVAGRSQDDAMVDYFFQRQHGEQLGGGGSGGGGYNNSKHRWPTGDNIHAEHQVRSMDELNHDFQALALEGRAMGEQLLPGKKFWETDESSKDGPKGIFLGDQWRDSAWGTSDHSVSQPIMVQRRPGQSFHVNSEVNSVLSPRSESGGLGVSMVEYVLSSSPGDSCLRKGGFGPRDADSDENDKGEKKNKGTFDGDKLGDLKEEGDVMDKTNGLPVQNGIDADVKDFSRTPGNCQNSANEVDLLGPNQNGSEGLAQLTSTNGAKPVEDFSNMESQSVPLDPMEHVGMEPLQFDYSGTQVPVDSAAATVGLFDYNSQQQLFQRPNALAVQQLTAAQQQQYALAAAHQPHIGLAPAAFVPNPYIISAAPPGTDPYTAGLAAAATLGPAVVPHQYYGVTPWGVYPASLFQQQAAAAAAATNSANQQTTPQAQQGQQQVLRGGASQRPLTPNQNQQGQQTDPLVAAAAVNSALAFGQGLAAGMPGYPVLAPAAYYDQTGALVVNAGARNGLGAPVRLVAPAPVIISSSAAQAAVAAAAASANGAAGGLAGTTNGPFRPLGTQQPQPQPQQQPNNNLASSSFYGNNSLNSNSQSSSLFSQGSAQPANTSLGFGSSSSLGATLGSALGGFGTAVANSNTGSGSRRDSLTGSSDLYKRTSSSLTPIGHSFYNGLSFSSSPGPVGMPLPSQGPGHSQTPPPSLSSHGSSSSLNLGGLTNGSGRYISAAPGAEAKYRSASSASSLFSPSSTLFSSSRLRYGMSDVMPSGRSRLLEDFRNNRYPNLQLREIAGHIMEFSQDQHGSRFIQLKLERATPAERQLVFNEILQAAYQLMVDVFGNYVIQKFFEFGSLEQKLALAERIRGHVLSLALQMYGCRVIQKALEFIPSDQQVINEMVRELDGHVLKCVKDQNGNHVVQKCIECVQPQSLQFIIDAFKGQVFALSTHPYGCRVIQRILEHCLPDQTLPILEELHQHTEQLVQDQYGNYVIQHVLEHGRPEDKSKIVAEIRGNVLVLSQHKFASNVVEKCVTHASRTERAVLIDEVCTMNDGPHSALYTMMKDQYANYVVQKMIDVAEPGQRKIVMHKIRPHIATLRKYTYGKHILAKLEKYYMKNGVDLGPICGPPNGII
7 | 3 | 0 | 0 | 0 |  |  |  |  | SRP14 (protein) VLLESEQFLTELTRLFQKCRTSGSVYITLKKYDGRTKPIPKKGTVEGFEPADNKCLLRATDGKKKISTVVSSKEVNKFQMAYSNLLRANMDGLKKRDKKNKTKKTKAAAAAAAAAPAAAATAPTTAATTAATAAQ
8 | 10 | 5 | 0 | 4 |  |  |  |  | SERBP1 (protein) PGHLQEGFGCVVTNRFDQLFDDESDPFEVLKAAENKKKEAGGGGVGGPGAKSAAQAAAQTNSNAAGKQLRKESQKDRKNPLPPSVGVVDKKEETQPPVALKKEGIRRVGRRPDQQLQGEGKIIDRRPERRPPRERRFEKPLEEKGEGGEFSVDRPIIDRPIRGRGGLGRGRGGRGRGMGRGDGFDSRGKREFDRHSGSDRSSFSHYSGLKHEDKRGGSGSHNWGTVKDELTESPKYIQKQISYNYSDLDQSNVTEETPEGEEHHPVADTENKENEVEEVKEEGPKEMTLDEWKAIQNKDRAKVEFNIRKPNEGADGQWKKGFVLHKSKSEEAHAEDSVMDHHFRKPANDITSQLEINFGDLGRPGRGGRGGRGGRGRGGRPNRGSRTDKSSASAPDVDDPEAFPALA
